# Reference: patent publication US9365620B2, “Methods for treating pain” (NoNO NC., priority 2008, dated 2016)
# “Also recorded” adds a separate entry of the source. Non-standard residues stand in square brackets, D forms with d. No end group written: not given here. Tle = CC(C)(C)[C@H](N)C(=O)O; Nva = CCC[C@H](N)C(=O)O
# Target: N-type calcium channels (Mus musculus, UniProt O55017)
# Experiment: not given
# Assay type: cell-based, Swiss mice
# Settings: not given
Sequence,Ca^2+ current shown as a percentage,inhibition of N-type calcium channel activity
FGRKKRRQRRRALSSIESDV (synthetic 1995 peptide F-Tat-NR2B9c K to A) [Peptide 1995],97+/−0.2%,
"KLSSIESDV (synthetic 1991 peptide 2B9c) [Peptide 1991, peptide 2B9c, the C-terminal portion of Tat-NR2B9c]",94+/−1.7%,no significant inhibition
YGRKKRRQRRR [Peptide 1990],57+/−1.6%,
YGRKKRRQRRRALSSIESDV (synthetic 1994 peptide Tat-NR2B9c K to A) [Peptide 1994],77+/−1.8%,no significant inhibition; also recorded: some reduction in the amount of N-type calcium channel activity
YGRKKRRQRRRKLSSIEADA (synthetic 1992 peptide Tat-NR2B9c-AA) [Peptide 1992],74+/−2.4%,some reduction in the amount of N-type calcium channel activity
"YGRKKRRQRRRKLSSIESDV [1987] ([dY]G[dR][dK][dK][dR][dR][dQ][dR][dR][dR][dK][dL][dS][dS][dI][dE][dS][dD][dV]) [Peptide 1987, D-isomer of Tat-NR2B9c]",82+/−2.2%,some reduction in the amount of N-type calcium channel activity
"YGRKKRRQRRRKLSSIESDX [1976] (YGRKKRRQRRRKLSSIESD[Nva]) [Peptide 1976, …X where X=norvaline]",66+/−3.4%,
"YGRKKRRQRRRKLSSIESDX [1977] (YGRKKRRQRRRKLSSIESD[Tle]) [Peptide 1977, …X where X=L-t-butyl-glycine]",65+/−5.1%,

# System: pain hypersensitivity after peripheral nerve injury
# Experiment: Paw withdrawal threshold (von Frey) after chronic constriction injury of the sciatic nerve
# Assay type: in vivo, Sprague-Dawley rats
# Settings: high dose, 10 mg/kg i.v., rats, 60, 90, 120 min; 10 mg/kg
# Excerpt: In these experiments, chronic constriction injury of the sciatic nerve was induced using the polyethylene cuff method (Mosconi T, Kruger L., Pain 1996, 64: 37-57). The left sciatic nerve of adult male Sprague-Dawley rats was exposed at mid-thigh level under halothane anesthesia. A polyethylene cuff (PE90 tubing, 2 mm in length) was slit open longitudinally and implanted around the sciatic nerve, and the animals were allowed to recover for a suitable period, e.g., 10-14 days. A sterile isotonic saline solution containing dissolved Tat-NR2B9c, or a saline-only control, was injected into the tail vein, with the animal under brief halothane anesthesia. Sensitivity to pain was measured by testing the paw withdrawal threshold of animals. Paw withdrawal thresholds to mechanical stimulation were assessed using Von-Frey filaments (Stoelting Co., Wood Dale, Ill., USA). Animals were placed in plastic cages with a plastic bottom. To test the tactile threshold required to evoke withdrawal of the stimulated paw, von Frey filaments (0.008-15.18 g) were applied perpendicularly to the plantar part of the hind paw in an ascending order. Each filament was applied for 5 times, and the paw withdrawal threshold was determined when there were three positive responses out of five times a filament was applied. To avoid tissue damage, the cut off threshold was assigned as 15.18 g.
row,Sequence,reversal of pain hypersensitivity (paw withdrawal threshold)
1,YGRKKRRQRRRKLSSIESDV (Synthetic peptide Tat-NR2B9c) [chimeric peptide of a standard tat peptide and …],did not result in any apparent reversal of pain hypersensitivity; also recorded: had no effect on pain hypersensitivity; also recorded: showed no effect on pain hypersensitivity

# Same assay, conditions: low dose, 100 pmol per animal i.v., rats, day 10-14 after surgery
row,Sequence,reversal of pain hypersensitivity (paw withdrawal threshold)
1,YGRKKRRQRRRKLSSIESDV (Synthetic peptide Tat-NR2B9c) [chimeric peptide of a standard tat peptide and …],reversed pain hypersensitivity; also recorded: showed a decrease in pain hypersensitivity

# Target: N-type Ca channels (Homo sapiens, UniProt Q00975)
# Experiment: not given
# Assay type: binding
# Settings: peptide at 10 μM
row,Sequence,inhibition of radiolabeled ω-Conotoxin GVIA binding to N-type Ca channels
1,YGRKKRRQRRRKLSSIESDV [Tat-NR2B9c] (Synthetic peptide Tat-NR2B9c) [chimeric peptide of a standard tat peptide and …],100%
